Measured values: article PMC6433120 (Nature, 2018)

Target: T1, CC-SAM domain of murine KSR1 (mouse, UniProt Q61097 25-170)
T1 sequence (looked up): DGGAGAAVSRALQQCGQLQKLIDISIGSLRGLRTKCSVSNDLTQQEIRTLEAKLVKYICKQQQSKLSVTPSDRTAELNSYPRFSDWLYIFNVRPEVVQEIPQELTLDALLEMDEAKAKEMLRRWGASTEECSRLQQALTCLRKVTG
Test: NMR titration

B1: BRS domain of human BRAF (domain or fragment, UniProt P15056 36-114, looked up)
chain: SSAADPAIPEEVWNIKQMIKLTQEHIEALLDKFGGEHNPPSIYLEAYEEYTSKLDALQQREQQLLESLGNGTDFSVSSS
binding result: binds
